Assay [1] relates to HIV-1. The settings on record: treatment period of 10-14 days, dose-dependent; cited from earlier work.
Assay [2] relates to R5 HIV-2 A2270. Kind of assay: Inhibition of replication in PBMC cultures, RT activity readout: HIV-2 A2270. Type of assay: cell-based. How it is done:
(§1) Viruses: All virus isolates were grown and titered exclusively in stimulated PBMC as described previously. […] The HIV-2 isolates used in this study have been previously described (Owen, S. M., Ellenberger, D., Rayfield, M., Wiktor, S., Michel, P., Grieco, M. H., Gao, F., Hahn, B. H., and Lai, R. B. 1998. Genetically Divergent Strains of Human Immunodeficiency Virus Type 2 Use Multiple Coreceptors for Entry. J Virol 72:5425-5432) and were obtained from the NIH AIDS Research and Reference Reagent Program.
PA14 (Lot # DF-021204) was produced for reagent use in the Research & Development laboratories of Progenics Pharmaceuticals Inc.
Inhibition of HIV-1 and HIV-2 replication in PBMC cultures: PBMC were isolated from 34 healthy blood donors with Ficoll-Hypaque (all media from Cellgro, Herndon, Va.) and depleted of CD8+ cells using RosetteSep CD8 depletion cocktail (StemCell Technologies) according to the manufacturer's instructions. Equal numbers of cells from each donor were then separately stimulated with 5 ug phytohemagglutinin/ml (Sigma, St. Louis, Mo.) or with surface-immobilized anti-CD3 antibody OKT3 in RPMI 1640 medium containing 10% fetal calf serum, 100 Units of interleukin-2/ml (NIH AIDS Research and Reference Reagent Program), glutamine, and antibiotics (PBMC culture medium) as previously described. After 72 hours, equal numbers of PBMC stimulated by one of these two methods from each donor were combined for use in infection assays as follows. […] The virus inoculum was adjusted to 400 to 2,000 times the TCID50 per ml in PBMC culture medium, and a 50-ul aliquot was added to each culture. The inhibitory doses refer to the concentrations of the agents present at this point in the culture, when virus, cells, and inhibitors were all present at their final concentrations. Reverse Transcriptase (RT) activity was measured on Day 7 post infection (pi) for HIV-1 and Day 10 pi for HIV-2 by the Reverse Transcriptase Assay, Colorimetric kit, #11 468 120 910, Roche (Switzerland) according to the manufacturer's instructions with the following exception: neither ultracentrifugation nor PEG precipitation of the culture supernatants was performed before viral lysis.
The inhibition data were analyzed using GraphPad Prism software (GraphPad Software, San Diego, Calif.). A 4-parameter logistic fit was used calculate the concentration of inhibitor that afforded a 50% and a 90% reduction in RT activity. […] The % inhibitions where best-fit curve reached a top plateau, also as calculated by GraphPad Prism software, are reported as well as maximum percent inhibition (MPI). […] Inhibition curves with a poor sigmoid fit (R^2<0.7) were excluded from data analysis.

The subject of assay [3] is HIV-1 (CCR5-tropic virus). Type of assay: in vivo. The settings on record: for Mean log10 HIV RNA change: Day 10 post-treatment. The source says:
The efficacy data collected during the study were changes in viral load and CD4 counts over time. The safety data collected during the study were serious adverse events (SAEs)/adverse events (AEs) and changes in laboratory parameters (hematology, chemistry), physical exam, viral tropism and ECGs over time.
All patients were screened prior to the study for the presence of virus that utilizes only CCR5 as the entry coreceptor., i.e., CCR5-tropic virus.
The primary efficacy endpoint was the reduction in plasma HIV RNA level as measured by the Roche Amplicor™ Assay. The primary efficacy endpoint is the maximum change from baseline in viral load, defined as HIV-1 copies/ml, as measured by the Roche Amplicor™ Assay.

The test system of assay [4] is R5X4 HIV-2 isolates. Kind of assay: Inhibition of replication in PBMC cultures, RT activity readout: two R5X4 HIV-2 isolates. The format is cell-based. The conditions noted are these: result in words. The procedure: Two well-characterized R5 HIV-1 isolates were included for comparative purposes.
as §1
Inhibition of HIV-1 and HIV-2 replication in PBMC cultures: PBMC were isolated from 34 healthy blood donors with Ficoll-Hypaque (all media from Cellgro, Herndon, Va.) and depleted of CD8+ cells using RosetteSep CD8 depletion cocktail (StemCell Technologies) according to the manufacturer's instructions. […] Reverse Transcriptase (RT) activity was measured on Day 7 post infection (pi) for HIV-1 and Day 10 pi for HIV-2 by the Reverse Transcriptase Assay, Colorimetric kit, #11 468 120 910, Roche (Switzerland) according to the manufacturer's instructions with the following exception: neither ultracentrifugation nor PEG precipitation of the culture supernatants was performed before viral lysis.
The inhibition data were analyzed using GraphPad Prism software (GraphPad Software, San Diego, Calif.). […]

Where “and” joins values, the source holds several entries; their conditions need not be identical. Equal entries are not always repeated. Entries after “also recorded” stand apart in the source; their conditions may differ. Where two headings read alike, the source gives them in different places.

On to `COC[C@@H](c1ccc(C(F)(F)F)cc1)N1CCN(C2(C)CCN(C(=O)c3c(C)ncnc3C)CC2)C[C@@H]1C` [SCH-D, 1-[(4,6-dimethyl-5-pyrimidinyl)carbonyl]-4-[4-[2-methoxy-1(R)-4-(trifluoromethyl)phenyl]ethyl-3(S)-methyl-1-piperazinyl]-4-methylpiperidine], for which, in assay [1], the “mean reductions in HIV-1 RNA levels” value is about 1 log10.

B1: PRO 140: humanized IgG4,κ anti-CCR5 monoclonal antibody, humanized version of murine mAb PA14 (antibody, chains of the INN, looked up, V domains shown)
VH: EVQLVESGGGLVKPGGSLRLSCAASGYTFSNYWIGWVRQAPGKGLEWIGDIYPGGNYIRNNEKFKDKTTLSADTSKNTAYLQMNSLKTEDTAVYYCGSSFGSNYVFAWFTYWGQGTLVTVSS
VL: DIVMTQSPLSLPVTPGEPASISCRSSQRLLSSYGHTYLHWYLQKPGQSPQLLIYEVSNRFSGVPDRFSGSGSGTDFTLKISRVEAEDVGVYYCSQSTHVPLTFGQGTKVEIK
As for B1, in assay [2] (HIV-2 A2270, R5), the “EC50 (median)” value worked out at 0.12 µg/mL and the “EC90 (median)” value is 3.5 µg/mL. For the same molecule, the “MPI (maximum percent inhibition)” value in assay [2] (R5 HIV-2 A2270, individual assays (Source)) is 103% and 101% and 97%. Also, the “MPI, Median” value in assay [2] (R5 HIV-2 A2270, median of assays) came to 101%. The “individual viral load reductions ranging up to” value in assay [3] (2.0 mg/kg and 5.0 mg/kg dose levels) is “up to 2.5 log10 and ≤ 99.7%”. Moreover, in assay [3] (5 mg/kg), the “Maximum decrease of viral load at any time” value was −1.8 log, the “Patients with <400 copies/mL (anytime)” value was 4/10, the “Patients with >1 log decrease (anytime)” value is 10/10 and the “viral load decrease at day 22” value is on record as −0.73. In assay [3] (5.0 mg/kg cohort), the “time to suppression of mean viral load by 1.0 log10 (90%)” value is recorded as “within four days” and the “time viral load persisted at or below the 1.0 log10 level of reduction” value is “two to three weeks”. In addition, in assay [3] (0.5 mg/kg), the “Mean log10 HIV RNA change” value is reported as −0.37 log10. Besides, the “Mean log10 HIV RNA change” value in assay [3] (2.0 mg/kg) was −1.04 log10. In addition, the “Mean log10 HIV RNA change” value in assay [3] (5.0 mg/kg) is given as −1.70 log10. In assay [3] (highest dose cohort), the “response rate (percentage of patients with a ≧1 log10 decrease in HIV RNA at any time)” value is 100%. Further, in assay [4], the “effect on replication of R5X4 HIV-2 isolates” value was “did not measurably inhibit replication; also recorded: Neither PRO 140 nor PA14 had any measurable effect on replication”.

(Values after patent US20090074766A1, “Methods of inhibiting HIV-2 infection” (priority 2007, published 2009).)
